The record followed here is patent US20030028002A1, “Cyclin D binding factor, and uses thereof” (published 2003).

Where a chain is given by its changes, count along the chain named.

Series [1] addresses T1, DMP1 M11 (K319E) K319E (Mus musculus) (UniProt Q8CE22).
T1 sequence: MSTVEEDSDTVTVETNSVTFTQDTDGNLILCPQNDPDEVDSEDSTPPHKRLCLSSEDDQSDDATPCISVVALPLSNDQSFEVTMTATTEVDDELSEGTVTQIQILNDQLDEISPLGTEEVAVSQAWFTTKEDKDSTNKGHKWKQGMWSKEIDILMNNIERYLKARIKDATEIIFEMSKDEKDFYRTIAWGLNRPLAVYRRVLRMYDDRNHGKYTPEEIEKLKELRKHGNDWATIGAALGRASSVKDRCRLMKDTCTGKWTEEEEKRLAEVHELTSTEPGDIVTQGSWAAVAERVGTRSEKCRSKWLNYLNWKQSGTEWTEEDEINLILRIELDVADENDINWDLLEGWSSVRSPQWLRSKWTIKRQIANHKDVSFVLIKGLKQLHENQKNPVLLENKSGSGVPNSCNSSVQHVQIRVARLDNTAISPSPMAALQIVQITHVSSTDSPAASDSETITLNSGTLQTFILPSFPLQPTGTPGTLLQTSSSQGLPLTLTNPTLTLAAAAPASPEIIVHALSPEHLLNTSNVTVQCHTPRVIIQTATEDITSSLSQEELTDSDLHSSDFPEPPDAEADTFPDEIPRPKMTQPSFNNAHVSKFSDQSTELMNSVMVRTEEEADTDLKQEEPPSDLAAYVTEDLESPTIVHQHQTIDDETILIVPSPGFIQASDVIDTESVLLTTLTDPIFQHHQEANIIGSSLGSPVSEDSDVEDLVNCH
The series can be described thus: EMSA. The conditions noted are these: very faint band.

In series [2] the target is T2, DMP1 M11 (K319E) expressed in NIH-3T3 cells K319E (Mus musculus) (UniProt Q8CE22).
T2 sequence: T1 sequence
The series is described as follows: cell_activity. The conditions noted are these: BS2 luciferase reporter.

The target in series [3] is T3, DMP1 expressed in 293T cells (Mus musculus) (UniProt Q8CE22).
T3 sequence: T1 sequence with E320K
The series can be described thus: cell_activity. Particulars: 8x BS2 luciferase reporter.

Series [4] deals with T4, DMP1 expressed in NIH-3T3 cells (Mus musculus) (UniProt Q8CE22).
T4 sequence: T1 sequence with E320K
The series can be described thus: cell_activity. The conditions noted are these: BS2 luciferase reporter.

Series [5] concerns the target T5, cyclin D2 (mouse, UniProt P30280 1-289).
T5 construct: 35S-labelled in vitro translation product in the pull-down; baculovirus product in Sf9 cells
The series can be described thus: coinfected Sf9 cells, coprecipitation.

The target of series [6] is T6, cyclin D3 (mouse, UniProt P30282 1-292).
T6 construct: 35S-labelled in vitro translation product in the pull-down; baculovirus product in Sf9 cells
T6 sequence (looked up): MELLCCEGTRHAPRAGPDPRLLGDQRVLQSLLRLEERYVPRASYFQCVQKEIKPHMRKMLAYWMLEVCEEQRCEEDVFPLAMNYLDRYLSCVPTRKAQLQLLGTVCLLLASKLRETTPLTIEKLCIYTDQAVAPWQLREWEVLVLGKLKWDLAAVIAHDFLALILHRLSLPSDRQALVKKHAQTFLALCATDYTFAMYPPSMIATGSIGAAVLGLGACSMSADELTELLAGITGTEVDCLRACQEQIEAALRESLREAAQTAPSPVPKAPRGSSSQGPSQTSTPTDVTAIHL
The series can be described thus: coinfected Sf9 cells, coprecipitation.

Series [7] addresses D-type cyclins. The series is described as follows: coexpression in Sf9 cells, coprecipitation (FIG. 3).
The target of series [8] is T7, cyclin D2-DMP1 complex (mouse, UniProt P30280 1-289).
T7 construct: Complex formed in coinfected Sf9 cells
T7 sequence (P30280 whole entry, one chain of several): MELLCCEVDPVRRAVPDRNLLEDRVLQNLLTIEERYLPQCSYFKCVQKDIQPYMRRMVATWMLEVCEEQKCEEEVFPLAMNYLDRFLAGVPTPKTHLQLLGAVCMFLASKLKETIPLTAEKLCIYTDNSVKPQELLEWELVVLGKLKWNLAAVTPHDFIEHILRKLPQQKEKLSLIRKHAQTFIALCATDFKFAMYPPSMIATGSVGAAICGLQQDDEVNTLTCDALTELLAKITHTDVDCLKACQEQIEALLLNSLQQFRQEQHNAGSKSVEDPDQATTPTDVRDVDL
The series is described as follows: coinfected Sf9 cells, immunoprecipitation with antiserum to DMP1.

The target of series [9] is T8, cyclin D1 (mouse, UniProt P25322 1-295).
T8 construct: 35S-labelled in vitro translation product in the pull-down; baculovirus product in Sf9 cells
T8 sequence (P25322 whole entry): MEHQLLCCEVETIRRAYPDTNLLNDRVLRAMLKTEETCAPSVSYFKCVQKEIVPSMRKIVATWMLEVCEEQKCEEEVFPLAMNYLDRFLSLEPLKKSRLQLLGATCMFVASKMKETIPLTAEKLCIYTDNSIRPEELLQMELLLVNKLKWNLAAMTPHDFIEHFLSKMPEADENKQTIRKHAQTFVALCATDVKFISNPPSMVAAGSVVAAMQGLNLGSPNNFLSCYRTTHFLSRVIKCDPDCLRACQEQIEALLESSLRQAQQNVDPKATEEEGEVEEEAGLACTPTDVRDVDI
The series can be described thus: anti-Flag immunoprecipitation from Sf9 lysates, Western blot for cyclin D1. The text has this:
The series of DMP1 deletion mutants and the K319E point mutant were then used to determine the cyclin D binding domain of DMP1. Expression vectors encoding murine wild-type DMP1, the corresponding deletion mutations, or K319E (i. e., wildtype DMP1 and M1-M11, defined in FIG. 10, Table 1) were cotransfected with an expression vector encoding cyclin D1 into SF9 cells. Wildtype DMP1 and M1-M11 were expressed containing Flag-tags. SF9 lysates were immunoprecipitated with an antibody raised against the Flag-tag. The immunoprecipitates were resolved individually by gel electrophoresis, and then Western blotted with an antibody raised against cyclin D1. […] Therefore, the cyclin D1 binding domain is missing in the M9 deletion mutant. […] Therefore, deletion of the N-terminal domain of DMP1 (i.e., amino acids 1-223) abrogates its ability to interact with D-type cyclins, and thus, the region of DMP1 from residues 1-223 contains a specific cyclin D interaction motif required for D-type cyclin-DMP1 association.

Series [10] concerns the target T8, cyclin D1. The series is described as follows: GST pull-down of 35S-labelled in vitro translated cyclin. How it is done:
(§1) Because DMP1 interacted with cyclin D2 in yeast, the ability of a glutathione S-transferase (GST)-DMP1 fusion protein to bind D-type cyclins in vitro is examined. GST is fused to residues 176-761 of DMP1 (in lieu of GAL4 in the original cDNA clone), and the bacterially synthesized recombinant protein is incubated with [³⁵S]methionine-labeled D-type cyclins prepared by transcription and translation in vitro. As a positive control, GST-RB which can specifically bind D-type cyclins in this assay is used (15). Bound cyclins recovered on washed glutathione-Sepharose beads are analyzed by electrophoresis on denaturing gels. […] GST-DMP1 is less efficient than GST-RB in binding cyclins D2 and D3 (˜4-fold less binding), and under these conditions, an interaction with D1 is not detected (lanes 3, 7, 11). No labeled proteins bind to GST alone (lanes 4, 8, 12), and neither cyclin A nor cyclin E bind to GST-RB or to GST-DMP1. A cyclin D2 mutant disrupted in an amino-terminal Leu-X-Cys-X-Glu pentapeptide that is required for high efficiency GST-RB binding is not detectably compromised in its interaction with GST-DMP1 (negative data not shown); in agreement, DMP1 bears no homology to RB or to RB-related family members (p107 and p130).

In series [11] the target is T5, cyclin D2. The series is described as follows: GST pull-down of 35S-labelled in vitro translated cyclin on glutathione-Sepharose, gel autoradiography. How it is done: as §1
Series [12] addresses T6, cyclin D3. Described as above. The protocol:
as §1

T5 sequence (P30280 whole entry): as the sequence (P30280 whole entry, one chain of several) above

Turning to “AATTGACCCGTATGTAGGTACGC (double strand) [BS2]”, the binding signal (% of wild type) in [1] is 2. Besides, the activity (fold activation) was determined as 1.1 in series [2], 20 in series [3] and 8.4 in series [4].

“RB (retinoblastoma protein) coexpressed in Sf9 cells”: the binding ratio of cyclin to RB in [5] and in series [6] was 1 ratio (1:1) each time.

B1: DMP1 (cyclin D-binding myb-like protein), murine, full length (protein)
chain: MSTVEEDSDTVTVETVNSVTFTQDTDGNLILHCPQNDPDEVDSEDSTEPPHKRLCLSSEDDQSIDDATPCISVVALPLSENDQSFEVTMTATTEVADDELSEGTVTQIQILQNDQLDEISPLGTEEVSAVSQAWFTTKEDKDSLTNKGHKWKQGMWSKEEIDILMNNIERYLKARGIKDATEIIFEMSKDERKDFYRTIAWGLNRPLFAVYRRVLRMYDDRNHVGKYTPEEIEKLKELRIKHGNDWATIGAALGRSASSVKDRCRLMKDTCNTGKWTEEEEKRLAEVVHELTSTEPGDIVTQGVSWAAVAERVGTRSEKQCRSKWLNYLNWKQSGGTEWTKEDEINLILRIAELDVADENDINWDLLAEGWSSVRSPQWLRSKWWTIKRQIANHKDVSFPVLIKGLKQLHENQKNNPVLLENKSGSGVPNSNCNSSVQHVQIRVARLEDNTAISPSPMAALQIPVQITHVSSTDSPAASADSETITLNSGTLQTFEILPSFPLQPTGTPGTYLLQTSSSQGLPLTLTTNPTLTLAAAAPASPEQIIVHALSPEHLLNTSDNVTVQCHTPRVIIQTVATEDITSSLSQEELTVDSDLHSSDFPEPPDALEADTFPDEIPRPKMTIQPSFNNAHVSKFSDQNSTELMNSVMVRTEEEIADTDLKQEEPPSDLASAYVTEDLESPTIVHQVHQTIDDETILIVPSPHGFIQASDVIDTESVLPLTTLTDPIFQHHQEASNIIGSSLGSPVSEDSKDVEDLVNCH
modifications: multiple phosphorylated forms when made in Sf9 cells (sites not given)
The molecule B1 returned a percent of DMP1 molecules in stable complexes with D-type cyclins in series [7] below 15%.

B2: catalytically inactive CDK4 mutant (enzyme, mouse, UniProt P30285 1-303, looked up)
chain: MAATRYEPVAEIGVGAYGTVYKARDPHSGHFVALMSVRVPNGGAAGGGLPVSTVREVALLRRLEAFEHPNVVRLMDVCATSRTDRDIKVTLVFEHIDQDLRTYLDKAPPPGLPVETIKDLMRQFLSGLDFLHANCIVHRDLKPENILVTSNGTVKLADFGLARIYSYQMALTPVVVTLWYRAPEVLLQSTYATPVDMWSVGCIFAEMFRRKPLFCGNSEADQLGKIFDLIGLPPEDDWPREVSLPRGAFAPRGPRPVQSVVPEMEESGAQLLLEMLTFNPHKRISAFRALQHSYLHKEESDAE
notes: also called mutant CDK4
Consider B2, for which the binding result in series [8] is on record as “no binding”.

B3: Flag-tagged DMP1 deletion mutant M9 (amino acids 234-761) (other)
chain: KLKELRIKHGNDWATIGAALGRSASSVKDRCRLMKDTCNTGKWTEEEEKRLAEVVHELTSTEPGDIVTQGVSWAAVAERVGTRSEKQCRSKWLNYLNWKQSGGTEWTKEDEINLILRIAELDVADENDINWDLLAEGWSSVRSPQWLRSKWWTIKRQIANHKDVSFPVLIKGLKQLHENQKNNPVLLENKSGSGVPNSNCNSSVQHVQIRVARLEDNTAISPSPMAALQIPVQITHVSSTDSPAASADSETITLNSGTLQTFEILPSFPLQPTGTPGTYLLQTSSSQGLPLTLTTNPTLTLAAAAPASPEQIIVHALSPEHLLNTSDNVTVQCHTPRVIIQTVATEDITSSLSQEELTVDSDLHSSDFPEPPDALEADTFPDEIPRPKMTIQPSFNNAHVSKFSDQNSTELMNSVMVRTEEEIADTDLKQEEPPSDLASAYVTEDLESPTIVHQVHQTIDDETILIVPSPHGFIQASDVIDTESVLPLTTLTDPIFQHHQEASNIIGSSLGSPVSEDSKDVEDLVNCH
notes: not shown: Flag-tag
As for B3, in series [9], the binding result is listed as “no binding”.

B4: GST-DMP1 fusion protein (GST fused to residues 176-761 of DMP1) (other)
chain: GIKDATEIIFEMSKDERKDFYRTIAWGLNRPLFAVYRRVLRMYDDRNHVGKYTPEEIEKLKELRIKHGNDWATIGAALGRSASSVKDRCRLMKDTCNTGKWTEEEEKRLAEVVHELTSTEPGDIVTQGVSWAAVAERVGTRSEKQCRSKWLNYLNWKQSGGTEWTKEDEINLILRIAELDVADENDINWDLLAEGWSSVRSPQWLRSKWWTIKRQIANHKDVSFPVLIKGLKQLHENQKNNPVLLENKSGSGVPNSNCNSSVQHVQIRVARLEDNTAISPSPMAALQIPVQITHVSSTDSPAASADSETITLNSGTLQTFEILPSFPLQPTGTPGTYLLQTSSSQGLPLTLTTNPTLTLAAAAPASPEQIIVHALSPEHLLNTSDNVTVQCHTPRVIIQTVATEDITSSLSQEELTVDSDLHSSDFPEPPDALEADTFPDEIPRPKMTIQPSFNNAHVSKFSDQNSTELMNSVMVRTEEEIADTDLKQEEPPSDLASAYVTEDLESPTIVHQVHQTIDDETILIVPSPHGFIQASDVIDTESVLPLTTLTDPIFQHHQEASNIIGSSLGSPVSEDSKDVEDLVNCH
notes: Made in bacteria, held on glutathione-Sepharose beads; not shown: glutathione S-transferase encoded by pGEX-3X (Pharmacia)
Regarding B4, in [10], the binding result is given as “no binding”. Further, the “fold less binding than GST-RB” value in [11] and in series [12] was ~4 fold less binding than GST-RB in each case.
